One experiment deals with T1, 127-tag peptide (Homo sapiens CXCR2 (synthetic peptide)).
T1 construct: numbers count on: the peptide; the printed residues Ser1', Phe2', Glu3', Phe5', Trp6', Lys7', Asp10' fit this; source: synthetic peptide
T1 chain: SFEDFWKGED
The experiment in a line: SPR; biotinylated Nb (1 uM) captured on a streptavidin (SA) chip to about 2000 RU; peptide as analyte, 50 ul/min, 60 s contact, 120 s dissociation; 1X PBS pH 7.4 plus 0.05% P20; Biacore T200; 1:1 kinetics binding model, local fittings. Particulars: both partners purified. (In general: Surface plasmon resonance follows binding to a sensor surface in real time, without labels.)

The target in experiment [1] is T2, 6E-WT peptide (Homo sapiens UBE2J1 (UBC6e; synthetic …, UniProt Q9Y385).
T2 construct: Leu at position 9; numbers count on: the peptide; the printed E5 and L9 fit this; also called 6E-L9 (WT); 6E peptide; source: synthetic peptide
T2 chain: QADQEAKELARQIS
The description is as above. Particulars: both partners purified.

The target of experiment [2] is T2, 6E-WT peptide. Briefly: flow cytometry on cells; competition: HEK293 cells stably expressing A2AR-Nb6E-ALFA with unlabeled variant 6E peptides (10–0.01 uM) and 10 nM FAM-6E-C14 for 30 m in 2% BSA in PBS; antifluorescein antibody-AF647; median fluorescence intensity. Particulars: one partner purified. (In general: In flow cytometry, cells or beads pass a laser one at a time.)

B1: Nb127–biotin (VHH)
VHH: EVQLVESGGGLVQAGESLRLSCAASGSTFDFKVMGWYRQPPGKQREGVAAIRLSGNMHYAESVKGRFAISKANAKNTVYLQMNSLRPEDTAVYYCKVNIRGQDYWGQGTQVTVSS
notes: as the chain of m1; Sortagging probably removes the His6 tag; also called biotinylated Nb127; source: bacterial expression (pET26b, pelB), purified; labelled by sortagging (Sortase 5M), Ni-NTA and PD10
Regarding B1, in the experiment with 127-tag peptide, the dissociation constant (Kd) (commonly the concentration at which binding is half-saturated) is 14 nM.

B2: Nb6E-biotin (VHH)
VHH: QVQLQESGGGLVQPGGSLRLSCAASGFVFENSAMAWYRQAPGKERELIAVIGTTFIKLAESVKGRFTISRDNAKSTVYLQMNNLKPEDTAVYYCSKSGAYWGQGTQVTVSS
notes: as the chain of m13; Sortagging probably removes the His6 tag; also called biotinylated Nb6E; source: bacterial expression (pET26b, pelB), purified; labelled by sortagging (Sortase 5M), Ni-NTA and PD10
Turning to B2, the binding result with 6E-WT peptide [1] is listed as “binds”.

B3: A2AR-Nb6E-ALFA (VHH)
VHH: QVQLQESGGGLVQPGGSLRLSCAASGFVFENSAMAWYRQAPGKERELIAVIGTTFIKLAESVKGRFTISRDNAKSTVYLQMNNLKPEDTAVYYCSKSGAYWGQGTQVTVSS
notes: as the chain of m13 (Nb6E); also called cell surface protein fused with Nb6E; source: HEK293 cells, stably expressing, on cells
On to B3, for which the binding result in the experiment with 6E-WT peptide [2] was “binds”.

Source of the values: PMC12212259, “Evaluation of AlphaFold modeling for elucidation of nanobody–peptide epitope interactions” (The Journal of Biological Chemistry, 2025).
